Assay results as given in the supplement of paper PMC9112550, “Optimization of the antimicrobial peptide Bac7 by deep mutational scanning” (BMC Biology, 2022).

The sequences below were run on Escherichia coli TOP10 (assay: shrunken log2 fold change of peptide-encoding DNA abundance (4.5 h post-induction vs induction); higher = less antimicrobial activity (less host growth inhibition)). Details: time post-induction: 4.5 h; library: site-saturation at positions 5, 18, 19, 20.
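Note: peptides expressed intracellularly from a pBAD plasmid library in pooled LB shake-flask culture, induced with 0.3% L-arabinose, DNA abundance read by NGS, three biological replicates, DESeq2 with apeglm shrinkage.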

| Sequence | shrunken log2 fold change |
| --- | --- |
| RRIRERPPRLPRPRPRPYEDPRP | -0.0116 |
| RRIRERPPRLPRPRPRPYEMPRP | -1.05 |
| RRIRERPPRLPRPRPRPYFLPRP | -0.437 |
| RRIRERPPRLPRPRPRPYFSPRP | -0.247 |
| RRIRERPPRLPRPRPRPYFVPRP | -0.892 |
| RRIRERPPRLPRPRPRPYFYPRP | -0.757 |
| RRIRERPPRLPRPRPRPYGFPRP | -0.382 |
| RRIRERPPRLPRPRPRPYGLPRP | -0.0303 |
| RRIRERPPRLPRPRPRPYGMPRP | -0.207 |
| RRIRERPPRLPRPRPRPYGPPRP | -1.02 |
| RRIRERPPRLPRPRPRPYHMPRP | -0.021 |
| RRIRERPPRLPRPRPRPYKFPRP | -0.835 |
| RRIRERPPRLPRPRPRPYLKPRP | 0.0189 |
| RRIRERPPRLPRPRPRPYLQPRP | -0.138 |
| RRIRERPPRLPRPRPRPYMKPRP | -0.438 |
| RRIRERPPRLPRPRPRPYNCPRP | 0.275 |
| RRIRERPPRLPRPRPRPYPWPRP | -0.706 |
| RRIRERPPRLPRPRPRPYQDPRP | -0.0275 |
| RRIRERPPRLPRPRPRPYQEPRP | -0.255 |
| RRIRERPPRLPRPRPRPYRIPRP | -0.0789 |
| RRIRERPPRLPRPRPRPYRNPRP | -0.166 |
| RRIRERPPRLPRPRPRPYSSPRP | -0.0288 |
| RRIRERPPRLPRPRPRPYTHPRP | -0.623 |
| RRIRERPPRLPRPRPRPYVTPRP | -0.447 |
| RRIRERPPRLPRPRPRPYYQPRP | 0.0241 |

| Sequence | shrunken log2 fold change |
| --- | --- |
| RRIRFRPPRLPRPRPRPAAHPRP | 0.333 |
| RRIRFRPPRLPRPRPRPAALPRP | -0.0867 |
| RRIRFRPPRLPRPRPRPACAPRP | 0.291 |
| RRIRFRPPRLPRPRPRPADAPRP | 0.147 |
| RRIRFRPPRLPRPRPRPAHCPRP | 0.0781 |
| RRIRFRPPRLPRPRPRPAHTPRP | -0.282 |
| RRIRFRPPRLPRPRPRPAIAPRP | 0.0519 |
| RRIRFRPPRLPRPRPRPAINPRP | -0.239 |
| RRIRFRPPRLPRPRPRPALFPRP | 0.173 |
| RRIRFRPPRLPRPRPRPAMFPRP | -0.292 |
| RRIRFRPPRLPRPRPRPAPAPRP | 0.674 |
| RRIRFRPPRLPRPRPRPAPKPRP | 0.379 |
| RRIRFRPPRLPRPRPRPAPQPRP | 0.666 |
| RRIRFRPPRLPRPRPRPAQHPRP | 0.265 |
| RRIRFRPPRLPRPRPRPASWPRP | 0.026 |
| RRIRFRPPRLPRPRPRPATWPRP | 0.317 |
| RRIRFRPPRLPRPRPRPAVEPRP | 0.509 |
| RRIRFRPPRLPRPRPRPAVWPRP | 0.402 |
| RRIRFRPPRLPRPRPRPAWFPRP | 0.122 |
| RRIRFRPPRLPRPRPRPAWGPRP | 0.144 |
| RRIRFRPPRLPRPRPRPAYAPRP | 0.113 |
| RRIRFRPPRLPRPRPRPAYCPRP | -0.219 |
| RRIRFRPPRLPRPRPRPCAGPRP | -0.177 |
| RRIRFRPPRLPRPRPRPCARPRP | 0.232 |
| RRIRFRPPRLPRPRPRPCCKPRP | -0.00992 |

| Sequence | shrunken log2 fold change |
| --- | --- |
| RRIRFRPPRLPRPRPRPCEQPRP | -0.00534 |
| RRIRFRPPRLPRPRPRPCFKPRP | -0.426 |
| RRIRFRPPRLPRPRPRPCGRPRP | 0.156 |
| RRIRFRPPRLPRPRPRPCIIPRP | -0.568 |
| RRIRFRPPRLPRPRPRPCMWPRP | -0.258 |
| RRIRFRPPRLPRPRPRPCNMPRP | -1.46 |
| RRIRFRPPRLPRPRPRPCPSPRP | -0.0894 |
| RRIRFRPPRLPRPRPRPCRGPRP | -0.106 |
| RRIRFRPPRLPRPRPRPCRIPRP | -2.21 |
| RRIRFRPPRLPRPRPRPCSQPRP | 0.0319 |
| RRIRFRPPRLPRPRPRPCSYPRP | -0.344 |
| RRIRFRPPRLPRPRPRPCWTPRP | -0.323 |
| RRIRFRPPRLPRPRPRPCYKPRP | -0.228 |
| RRIRFRPPRLPRPRPRPDAGPRP | 0.121 |
| RRIRFRPPRLPRPRPRPDCTPRP | -0.0512 |
| RRIRFRPPRLPRPRPRPDCVPRP | -0.0904 |
| RRIRFRPPRLPRPRPRPDGCPRP | -0.0502 |
| RRIRFRPPRLPRPRPRPDHWPRP | -0.00426 |
| RRIRFRPPRLPRPRPRPDIAPRP | 0.101 |
| RRIRFRPPRLPRPRPRPDITPRP | -0.0339 |
| RRIRFRPPRLPRPRPRPDKKPRP | -0.0461 |
| RRIRFRPPRLPRPRPRPDLAPRP | 0.0811 |
| RRIRFRPPRLPRPRPRPDLLPRP | 0.118 |
| RRIRFRPPRLPRPRPRPDLSPRP | -0.0807 |
| RRIRFRPPRLPRPRPRPDMFPRP | -0.0758 |

| Sequence | shrunken log2 fold change |
| --- | --- |
| RRIRFRPPRLPRPRPRPDNQPRP | -0.834 |
| RRIRFRPPRLPRPRPRPDQPPRP | 0.57 |
| RRIRFRPPRLPRPRPRPDQQPRP | -0.078 |
| RRIRFRPPRLPRPRPRPDWNPRP | -0.287 |
| RRIRFRPPRLPRPRPRPDWVPRP | 0.0788 |
| RRIRFRPPRLPRPRPRPDYMPRP | -0.432 |
| RRIRFRPPRLPRPRPRPECLPRP | -0.0562 |
| RRIRFRPPRLPRPRPRPEEIPRP | 0.0025 |
| RRIRFRPPRLPRPRPRPEFMPRP | -0.109 |
| RRIRFRPPRLPRPRPRPEGSPRP | -0.134 |
| RRIRFRPPRLPRPRPRPEICPRP | 0.172 |
| RRIRFRPPRLPRPRPRPEIDPRP | 0.0823 |
| RRIRFRPPRLPRPRPRPEKSPRP | -0.101 |
| RRIRFRPPRLPRPRPRPELMPRP | 0.179 |
| RRIRFRPPRLPRPRPRPELTPRP | 0.136 |
| RRIRFRPPRLPRPRPRPEMGPRP | 0.0117 |
| RRIRFRPPRLPRPRPRPENAPRP | 0.402 |
| RRIRFRPPRLPRPRPRPENSPRP | -3.45e-05 |
| RRIRFRPPRLPRPRPRPENYPRP | 0.0219 |
| RRIRFRPPRLPRPRPRPEPQPRP | 0.417 |
| RRIRFRPPRLPRPRPRPEPSPRP | 0.378 |
| RRIRFRPPRLPRPRPRPERLPRP | 0.265 |
| RRIRFRPPRLPRPRPRPERMPRP | 0.124 |
| RRIRFRPPRLPRPRPRPESYPRP | -0.0666 |
| RRIRFRPPRLPRPRPRPEVIPRP | 0.0373 |

| Sequence | shrunken log2 fold change |
| --- | --- |
| RRIRFRPPRLPRPRPRPEWTPRP | 0.155 |
| RRIRFRPPRLPRPRPRPFCKPRP | -0.374 |
| RRIRFRPPRLPRPRPRPFCMPRP | -0.62 |
| RRIRFRPPRLPRPRPRPFCWPRP | 0.4 |
| RRIRFRPPRLPRPRPRPFDPPRP | -0.135 |
| RRIRFRPPRLPRPRPRPFEDPRP | -0.0916 |
| RRIRFRPPRLPRPRPRPFEEPRP | -0.119 |
| RRIRFRPPRLPRPRPRPFFWPRP | 0.118 |
| RRIRFRPPRLPRPRPRPFGDPRP | -0.19 |
| RRIRFRPPRLPRPRPRPFIGPRP | -0.362 |
| RRIRFRPPRLPRPRPRPFIHPRP | -0.724 |
| RRIRFRPPRLPRPRPRPFKTPRP | -0.164 |
| RRIRFRPPRLPRPRPRPFMNPRP | -0.03 |
| RRIRFRPPRLPRPRPRPFNMPRP | -0.314 |
| RRIRFRPPRLPRPRPRPFNTPRP | -0.688 |
| RRIRFRPPRLPRPRPRPFNVPRP | -0.0431 |
| RRIRFRPPRLPRPRPRPFPAPRP | -0.132 |
| RRIRFRPPRLPRPRPRPFQQPRP | -0.268 |
| RRIRFRPPRLPRPRPRPFSFPRP | -0.499 |
| RRIRFRPPRLPRPRPRPFSNPRP | 0.0406 |
| RRIRFRPPRLPRPRPRPFTIPRP | -0.313 |
| RRIRFRPPRLPRPRPRPFTPPRP | -0.358 |
| RRIRFRPPRLPRPRPRPFWFPRP | -0.275 |
| RRIRFRPPRLPRPRPRPFWQPRP | -0.321 |
| RRIRFRPPRLPRPRPRPFYCPRP | -0.781 |

| Sequence | shrunken log2 fold change |
| --- | --- |
| RRIRFRPPRLPRPRPRPFYGPRP | -0.146 |
| RRIRFRPPRLPRPRPRPFYMPRP | -0.317 |
| RRIRFRPPRLPRPRPRPFYSPRP | -0.0734 |
| RRIRFRPPRLPRPRPRPFYYPRP | -0.777 |
| RRIRFRPPRLPRPRPRPGEEPRP | 0.0793 |
| RRIRFRPPRLPRPRPRPGFAPRP | 0.374 |
| RRIRFRPPRLPRPRPRPGFFPRP | 0.023 |
| RRIRFRPPRLPRPRPRPGGTPRP | -0.0188 |
| RRIRFRPPRLPRPRPRPGHGPRP | 0.148 |
| RRIRFRPPRLPRPRPRPGHVPRP | -0.447 |
| RRIRFRPPRLPRPRPRPGIEPRP | -0.0616 |
| RRIRFRPPRLPRPRPRPGILPRP | -0.187 |
| RRIRFRPPRLPRPRPRPGKQPRP | 0.0463 |
| RRIRFRPPRLPRPRPRPGLKPRP | 0.0731 |
| RRIRFRPPRLPRPRPRPGNPPRP | -0.00343 |
| RRIRFRPPRLPRPRPRPGNRPRP | 1.63 |
| RRIRFRPPRLPRPRPRPGNSPRP | 0.00114 |
| RRIRFRPPRLPRPRPRPGPVPRP | 0.266 |
| RRIRFRPPRLPRPRPRPGQIPRP | -0.133 |
| RRIRFRPPRLPRPRPRPGSCPRP | -0.0149 |
| RRIRFRPPRLPRPRPRPGSDPRP | -0.111 |
| RRIRFRPPRLPRPRPRPGTRPRP | 0.208 |
| RRIRFRPPRLPRPRPRPGVCPRP | 0.307 |
| RRIRFRPPRLPRPRPRPGVYPRP | -0.0669 |
| RRIRFRPPRLPRPRPRPGWIPRP | 0.0799 |
